Test results published in publication PMC3041740, “Interplay between HIV Entry and Transportin-SR2 Dependency” (Retrovirology, 2011).

B1: HIV-1 integrase, C-terminally His6-tagged (enzyme)
chain: FLDGIDKAQEEHEKYHSNWRAMASDFNLPPVVAKEIVASCDKCQLKGEAMHGQVDCSPGIWQLDCTHLEGKVILVAVHVASGYIEAEVIPAETGQETAYFLLKLAGRWPVKTVHTDNGSNFTSTTVKAACWWAGIKQEFGIPYNPQSQGVIESMNKELKKIIGQVRDQAEHLKTAVQMAVFIHNFKRKGGIGGYSAGERIVDIIATDIQTKELQKQITKIQNFRVYYRDSRDPVWKGPAKLLWKGEGAVVIQDNSDIKVVPRRKAKIIRDYGKQMAGDDCVASRQDED
B2: MLV integrase, C-terminally His6-tagged (enzyme)
chain: IENSSPYTSEHFHYTVTDIKDLTKLGAIYDKTKKYWVYQGKPVMPDQFTFELLDFLHQLTHLSFSKMKALLERSHSPYYMLNRDRTLKNITETCKACAQVNASKSAVKQGTRVRGHRPGTHWEIDFTEIKPGLYGYKYLLVFIDTFSGWIEAFPTKKETAKVVTKKLLEEIFPRFGMPQVLGTDNGPAFVSKVSQTVADLLGIDWKLHCAYRPQSSGQVERMNRTIKETLTKLTLATGSRDWVLLLPLALYRARNTPGPHGLTPYEILYGAPPPLVNFPDPDMTRVTNSPSLQAHLQALYLVQHEVWRPLAAAYQEQLDRPVVPHPYRVGDTVWVRRHQTKNLEPRWKGPYTVLLTTPTALKVDGIAAWIHAAHVKAADPGGGPSSRLTWRVQRSQNPLKIRLTREAP
notes: integrase (IN) of murine leukemia virus (MLV); also called His6-tagged MLV IN; not shown: His6, C-terminal, kept

Target: T1, GST-TRN-SR2 (transportin-SR2) (UniProt Q9Y5L0-2 1-923)
T1 construct: transportin-SR2 (TRN-SR2, TNPO3, transportin 3); also called TNPO3; transportin 3; source: recombinant, expressed from pGEX-6P-2, purified using Glutathione Sepharose Resin
T1 sequence (looked up): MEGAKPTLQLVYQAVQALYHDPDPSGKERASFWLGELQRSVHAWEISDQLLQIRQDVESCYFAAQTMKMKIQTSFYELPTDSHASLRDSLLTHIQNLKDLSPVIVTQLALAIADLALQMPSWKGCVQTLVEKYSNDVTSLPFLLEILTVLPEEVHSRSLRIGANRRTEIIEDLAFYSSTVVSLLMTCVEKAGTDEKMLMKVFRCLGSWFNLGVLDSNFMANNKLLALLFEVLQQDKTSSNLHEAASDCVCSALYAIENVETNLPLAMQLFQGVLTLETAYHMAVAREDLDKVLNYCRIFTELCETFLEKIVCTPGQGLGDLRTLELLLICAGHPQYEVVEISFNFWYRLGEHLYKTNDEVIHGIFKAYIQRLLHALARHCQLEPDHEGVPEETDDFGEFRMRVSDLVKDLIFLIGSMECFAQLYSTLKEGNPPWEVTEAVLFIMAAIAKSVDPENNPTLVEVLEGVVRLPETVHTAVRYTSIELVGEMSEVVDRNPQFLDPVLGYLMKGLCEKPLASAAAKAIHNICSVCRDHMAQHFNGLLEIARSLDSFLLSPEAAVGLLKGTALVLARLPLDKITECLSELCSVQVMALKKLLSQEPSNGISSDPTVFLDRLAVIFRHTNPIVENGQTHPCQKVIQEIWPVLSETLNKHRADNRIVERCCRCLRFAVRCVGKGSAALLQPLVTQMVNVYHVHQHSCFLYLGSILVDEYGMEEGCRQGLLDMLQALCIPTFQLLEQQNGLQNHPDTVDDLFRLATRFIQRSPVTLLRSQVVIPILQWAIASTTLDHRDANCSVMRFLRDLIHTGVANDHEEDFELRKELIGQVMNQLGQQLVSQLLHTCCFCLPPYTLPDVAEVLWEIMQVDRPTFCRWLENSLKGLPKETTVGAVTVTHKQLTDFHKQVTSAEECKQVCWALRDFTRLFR
Experiment: AlphaScreen or HTRF; 10 nM GST-TRN-SR2 titrated with 1 to 150 nM His6-tagged protein; glutathione donor and nickel-chelate acceptor beads; 25 mM Tris/HCl pH 7.4, 150 mM NaCl, 1 mM MgCl2, 0.1% Tween-20, 0.1% BSA; 1 h at 4°C, then 1.5 h at room temperature with beads; apparent Kd
Settings: both partners purified

| Binder | Kd |
| --- | --- |
| B1 | 36.3 ± 2.3 nM |
| B2 | 17.5 ± 0.5 nM |
